Experimental data taken from FireProtDB (doi:10.1128/aem.02129-17).

B1: Lipase, P19515 (parent)
chain: MVLKQRANYLGFLIVFFTAFLVEAVPIKRQSNSTVDSLPPLIPSRTSAPSSSPSTTDPEAPAMSRNGPLPSDVETKYGMALNATSYPDSVVQAMSIDGGIRAATSQEINELTYYTTLSANSYCRTVIPGATWDCIHCDATEDLKIIKTWSTLIYDTNAMVARGDSEKTIYIVFRGSSSIRNWIADLTFVPVSYPPVSGTKVHKGFLDSYGEVQNELVATVLDQFKQYPSYKVAVTGHSLGGATALLCALDLYQREEGLSSSNLFLYTQGQPRVGDPAFANYVVSTGIPYRRTVNERDIVPHLPPAAFGFLHAGEEYWITDNSPETVQVCTSDLETSDCSNSIVPFTSVLDHLSYFGINTGLCT

Variants of: B1
Conditions: Rhizomucor miehei; pH 8; Thermal; DSF; sodium phosphate buffer 50 mM; structure 6QPR; whole UniProt chain shown

Row | Variant | Tm [°C] | change of melting temperature, mutant - wild type (higher = more stable) [°C]
1 | S208V | 59.1 | -4.9
2 | S208W | 59.5 | 3.9
3 | N358W | 57.2 | -2.7
4 | T112K T116I E324I S150C N157C | 69.3 | 10.6
5 | E314I | 58.7 | -2.7
6 | E314V | 58.8 | -5.3
7 | T112I | 58.1 | -3
8 | T112K | 63.2 | 4.5
9 | T112K T116I | 64 | 5.3
10 | T112K T116I E324I V283C D332C | 72.3 | 13.6
11 | D332W | 58.7 | -4.5
12 | D332L | 57.8 | -2.5
13 | D332P | 58.7 | -3.8
14 | D332Y | 58.7 | -5.4
15 | E324W | 61.4 | 2.7
16 | E324I | 64.4 | 5.7
17 | E324L | 64.1 | 5.4
18 | E324M | 60 | 1.3
19 | E324T | 62.5 | 3.8
20 | N321L | 59.3 | -13
21 | T112K E324I | 66.7 | 8
22 | Q327I | 59.5 | 2.3
23 | N280W | 55.6 | -3.1
